Test results published in the RNAGym collection of RNA variant scans (doi:10.7554/elife.80360).

B1: Twister Ribozyme (parent)
chain: AACACUGCCAAUGCCGGUCCCAAGCCCGGAUAAAAGUGGAGGGGGCGG

Variants of: B1
Experiment: self-cleavage, relative activity (ratio to wild type); higher = more cleavage; co-transcriptional

Variant	self-cleavage
AACACUGCCAGUGCCGGUCCCAAGCCCGGAUAAAAGUGGAGGGGGCGA	0.884
AACACUGCCAGUGCCGGUCCCAAGCCCGGAUAAAAGUGGAGGGGGCGC	1.09
AACACUGCCAUUGCCGGUCCCAAGCUCGGAUAAAAGUGGAGGGGGCGG	0.69
AACACUGCCAGUGCCGGUCCCAAGCCCGGAUAAAAGUGGAGGGGCCGG	0.343
AACACUGCCAUUGCCGGUCCCAAGUCCGGAUAAAAGUGGAGGGGGCGG	1.03
AACACUGCCAUUGCCGGUCCCAAGACCGGAUAAAAGUGGAGGGGGCGG	0.139
AACACUGCCAUUGGCGGUCCCAAGCCCGGAUAAAAGUGGAGGGGGCGG	0.203
AACACUGCCAUUGCCGGUCCCAAGCCCGGAUGAAAGUGGAGGGGGCGG	0.911
AACACUGCCAUUGCCGGUCCCAAGCCCGGAUUAAAGUGGAGGGGGCGG	1.1
AACACUGCCAAAGCCGGUCCCAAGCCCGGGUAAAAGUGGAGGGGGCGG	1.01
AACACUGCCAUUGCCGGGCCCAAGCCCGGAUAAAAGUGGAGGGGGCGG	0.0666
AACACUGCCAAAGCCGGUCACAAGCCCGGAUAAAAGUGGAGGGGGCGG	0.181
AACACUGCCAAAGCCGGUCGCAAGCCCGGAUAAAAGUGGAGGGGGCGG	0.16
AACACUGCCAUUGCGGGUCCCAAGCCCGGAUAAAAGUGGAGGGGGCGG	0.0907
AACACUGCCAUUGCAGGUCCCAAGCCCGGAUAAAAGUGGAGGGGGCGG	0.62
AACACUGCCAAAGCCGGUCCCAAGCCCGGAUAAAAGUGGAGGGGGUGG	0.977
AACACUGCCAUUGCCGGUCCCAAGCCUGGAUAAAAGUGGAGGGGGCGG	0.894
AACACUGCCAUUGCCGGUCCCAAGCCAGGAUAAAAGUGGAGGGGGCGG	0.66
AACACUGCCAUUGCCGGUCCCAAGCCGGGAUAAAAGUGGAGGGGGCGG	0.104
AACACUGCCAUUGCCGGUCCCAAGCCCGGAUAAAACUGGAGGGGGCGG	0.573
AACACUGCCAUUGCCGGUCCCAAGCCCGGAUAAAAUUGGAGGGGGCGG	0.849
AACACUGCCAGUGCCGGUCCCAAGCCCGGAUAAAAGUGGACGGGGCGG	0.313
AACACUGCCAAAGCCGGUCCCAAGCUCGGAUAAAAGUGGAGGGGGCGG	0.563
AACACUGCCAAAGCCGGUCCCAAGCACGGAUAAAAGUGGAGGGGGCGG	0.763
AACACUGCCAAAGCCGGUCCCAAGGCCGGAUAAAAGUGGAGGGGGCGG	0.423
AACACUGCCAUUGCCAGUCCCAAGCCCGGAUAAAAGUGGAGGGGGCGG	0.804
AACACUGCCAUUGCCCGUCCCAAGCCCGGAUAAAAGUGGAGGGGGCGG	0.532

Variant	self-cleavage
AACACUGCCAUUGCCGGUCCCAAGCCCGGCUAAAAGUGGAGGGGGCGG	0.862
AACACUGCCAUUGCCGGUCCCAAGCCCGGAUAAAAGUGGAGGGAGCGG	0.977
AACACUGCCAGUGCCGGUCCCAAGCCCGGAUAAAAGCGGAGGGGGCGG	0.529
AACACUGCCAGUGCCGGUCCCAAGCCCGGAUAAAAGGGGAGGGGGCGG	0.494
AACACUGCCAGUGCCGGUCCCAAGCCCGGAUAAAAGUGGAGGGCGCGG	0.784
AACACUGCCAGUGCCGGUCCCAAGCCCGGAUAAAAGUGGAGGGGGCAG	0.812
AACACUGCCAAAACCGGUCCCAAGCCCGGAUAAAAGUGGAGGGGGCGG	0.89
AACACUGCCAAAGCCGGUCCCAAGCCCGGAUCAAAGUGGAGGGGGCGG	1.15
AACACUGCCAAAGCCGGUCCCAAGCCCGGAUGAAAGUGGAGGGGGCGG	1.12
AACACUGCCAAAGCAGGUCCCAAGCCCGGAUAAAAGUGGAGGGGGCGG	0.901
AACACUGCCAAAGCGGGUCCCAAGCCCGGAUAAAAGUGGAGGGGGCGG	0.17
AACACUGCCAUUGCCGGUCCCAAGCCCGGAUAAAAGUGGUGGGGGCGG	0.142
AACACUGCCAUUGCCGGUCCCAAGCCCGGAUAAAAGUGGCGGGGGCGG	0.161
AACACUGCCAUUGCCGGUCCCAAGCCCGGAUAAUAGUGGAGGGGGCGG	0.974
AACACUGCCAUUGCCGGUCCCAAGCCCGGAUAAGAGUGGAGGGGGCGG	1.07
AACACUGCCAUUGCCGGUCCCCAGCCCGGAUAAAAGUGGAGGGGGCGG	1.17
AACACUGCCAUUGCCGGUCCCGAGCCCGGAUAAAAGUGGAGGGGGCGG	0.399
AACACUGCCAUAGCCGGUCCCAAGCCCGGAUAAAAGUGGAGGGGGCGG	0.95
AACACUGCCAUCGCCGGUCCCAAGCCCGGAUAAAAGUGGAGGGGGCGG	0.849
AACACUGCCAUUGCCGGUCCCAAGCCCGGAUAAAAGGGGAGGGGGCGG	0.953
AACACUGCCAUUGCCGGUCCCAAGCCCGGAUAAAAGCGGAGGGGGCGG	0.583
AACACUGCCAUUGCCGGUCCCAAGCCCGGAUAAAAGAGGAGGGGGCGG	1.01
AACACUGCCAUUGCCGGUCCCAAGCCCGGAUAAAAGUGGAGCGGGCGG	0.623
AACACUGCCAUUGCCGGUCCCAAGCCCGGAUAAAAGUGGAGUGGGCGG	0.33
AACACUGCCAUUGCCGGUCCCAAGCCCGGAUAAAAGUGGAGAGGGCGG	0.557
AACACUGCCAUUGCCGGUCCCAAGCCCGGAUAAAAGUGGAGGCGGCGG	0.234
AACACUGCCAAAGACGGUCCCAAGCCCGGAUAAAAGUGGAGGGGGCGG	0.997
